The source of these data is publication PMC12608094, “STN1 Shields CTC1 From TRIM32‐Mediated Ubiquitination to Prevent Cellular Aging” (Aging Cell, 2025).

For experiment [1], the target named is T1, Flag-tagged CTC1 (wild type) (human, UniProt Q2NKJ3 1-1217).
T1 sequence (looked up): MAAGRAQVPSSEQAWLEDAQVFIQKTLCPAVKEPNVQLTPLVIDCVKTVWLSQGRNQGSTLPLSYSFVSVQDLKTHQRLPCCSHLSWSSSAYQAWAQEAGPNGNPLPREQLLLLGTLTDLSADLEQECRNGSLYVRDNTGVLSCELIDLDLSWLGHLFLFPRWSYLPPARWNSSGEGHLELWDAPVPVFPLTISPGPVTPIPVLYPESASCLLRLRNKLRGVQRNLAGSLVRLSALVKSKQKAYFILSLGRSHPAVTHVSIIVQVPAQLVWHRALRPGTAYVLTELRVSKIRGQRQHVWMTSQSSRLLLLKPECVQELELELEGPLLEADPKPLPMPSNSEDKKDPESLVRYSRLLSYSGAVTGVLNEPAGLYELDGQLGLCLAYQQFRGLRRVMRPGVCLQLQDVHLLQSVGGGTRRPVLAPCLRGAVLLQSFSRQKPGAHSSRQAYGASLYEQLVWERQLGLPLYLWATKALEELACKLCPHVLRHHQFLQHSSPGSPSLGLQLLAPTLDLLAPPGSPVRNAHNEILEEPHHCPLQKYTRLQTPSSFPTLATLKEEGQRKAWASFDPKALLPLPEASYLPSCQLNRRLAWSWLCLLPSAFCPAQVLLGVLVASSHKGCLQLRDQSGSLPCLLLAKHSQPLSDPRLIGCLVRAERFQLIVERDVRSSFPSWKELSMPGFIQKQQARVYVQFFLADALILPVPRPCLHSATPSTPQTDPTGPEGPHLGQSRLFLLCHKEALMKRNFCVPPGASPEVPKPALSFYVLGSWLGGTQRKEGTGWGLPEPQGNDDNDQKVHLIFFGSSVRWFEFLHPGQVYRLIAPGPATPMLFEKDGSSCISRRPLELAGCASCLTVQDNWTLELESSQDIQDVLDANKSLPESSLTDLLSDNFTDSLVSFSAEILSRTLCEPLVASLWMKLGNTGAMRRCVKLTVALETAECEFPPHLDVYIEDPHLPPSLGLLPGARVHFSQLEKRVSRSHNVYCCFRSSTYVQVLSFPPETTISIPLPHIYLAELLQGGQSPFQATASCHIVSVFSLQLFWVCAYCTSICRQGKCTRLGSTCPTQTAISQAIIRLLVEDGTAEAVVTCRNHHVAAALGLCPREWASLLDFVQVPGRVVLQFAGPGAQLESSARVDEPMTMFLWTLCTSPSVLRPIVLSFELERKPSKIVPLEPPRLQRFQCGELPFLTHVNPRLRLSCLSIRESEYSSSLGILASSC

The target in experiment [2] is T1, Flag-tagged CTC1 (wild type). In words: cell-based or functional assay.

For the molecule “HA-tagged STN1 OB (N-terminal half-truncation) (domain or fragment)”, in experiment [1], the half-life of Flag-CTC1 in HEK293T cells (CHX chase over 12 h) with HA-STN1OB was determined as 8 h.

Consider “HA-tagged STN1 wHTH (C-terminal half-truncation) (domain or fragment)”, for which the half-life of Flag-CTC1 in HEK293T cells (CHX chase over 12 h) with HA-STN1 wHTH in experiment [1] came out at 5 h.

B1: HA-tagged STN1 (wild type) (natural protein, human, UniProt Q9H668 1-368, looked up)
chain: MQPGSSRCEEETPSLLWGLDPVFLAFAKLYIRDILDMKESRQVPGVFLYNGHPIKQVDVLGTVIGVRERDAFYSYGVDDSTGVINCICWKKLNTESVSAAPSAARELSLTSQLKKLQETIEQKTKIEIGDTIRVRGSIRTYREEREIHATTYYKVDDPVWNIQIARMLELPTIYRKVYDQPFHSSALEKEEALSNPGALDLPSLTSLLSEKAKEFLMENRVQSFYQQELEMVESLLSLANQPVIHSASSDQVNFKKDTTSKAIHSIFKNAIQLLQEKGLVFQKDDGFDNLYYVTREDKDLHRKIHRIIQQDCQKPNHMEKGCHFLHILACARLSIRPGLSEAVLQQVLELLEDQSDIVSTMEHYYTAF
With B1, in experiment [2], the “half-life of Flag-CTC1 in HEK293T cells (CHX chase over 12 h) with HA-STN1 WT” value worked out at 10 h.
